Results: patent US20080132679A1 (KANEKA, published 2008)

B1: peptide P15 (peptide)
peptide: CASDIVEGIYL
notes: Chemically synthesized; immobilized on a CM5 sensor chip by amine coupling (130 RU) for the Biacore assay; also called Peptide 15
B2: peptide P21 (peptide)
peptide: CQHILGSDIVEGIYL
notes: Chemically synthesized; immobilized on a CM5 sensor chip by amine coupling (270 RU) for the Biacore assay; also called Peptide 21
B3: peptide P14 (peptide)
peptide: CASDIVEGLYIVLAER
notes: Chemically synthesized by the Fmoc method; immobilized on a CM5 sensor chip by amine coupling (200 RU) for the Biacore assay; also called Peptide 14

Target: T1, Recombinant Human Insulin Receptor (28-956) (human, UniProt P06213 28-956)
T1 construct: range 28-956; Bought soluble receptor used as the analyte; also called soluble insulin receptor; SIR
Assay: SPR (BIAcore), peptide immobilized on CM5 by amine coupling, SIR as analyte 0.781-100 nM
Experimental: The ligand was immobilized on the sensor chip CM5 research grade (Biacore AB) by the amine coupling method. Thus, the peptide mentioned above was dissolved in 20 mM carbonate buffer (pH 8.5) (500 μg/ml), and 100 μl of the solution was passed through the flow cell at a flow rate of 5 μl/min. The amount of the peptide immobilized was 200 RU (resonance units).
Recombinant Human Insulin Receptor (28-956) (GT/TECHNE Corp.) was used as the analyte soluble insulin receptor (SIR). To 50 mg in a vial was added HBS-EP buffer (250 ml) for thorough dissolution ([…]), and the solution was 10-fold diluted to give a 100 nM solution. Eight concentration levels from 100 nM to 0.781 nM were prepared by subsequent repetitions of doubling dilution, and measurements were carried out using HBS-EP buffer (10 mM HEPES pH 7.4, 0.15M NaCl, 3 mM EDTA, 0.005% Surfactant P20) (Biacore AB) as a running solution; the rate of flow was 10 μl/min. A sensorgram was thus obtained.
Recombinant Human Insulin Receptor (28-956) (GT/TECHNE Corp.) was used as the analyte SIR. Eight concentration levels from 100 nM to 0.781 nM were prepared by subsequent repetitions of doubling dilution, which was started from diluting 100 nM solution, and measurements were carried out using HBS-EP buffer as a running solution; the rate of flow was 10 μl/min. A sensorgram was thus obtained.

Binder	Kd [µM]
B1	24
B2	12
B3	1.6
